Changes are numbered by the printed parent chain. Names may count otherwise. Where two headings read alike, the source gives them in different places.
B1: Pbm-AIF: full length mouse AIF mutant R588A;K589A;K592A (PAR binding motif mutant) (protein)
chain: MFRCGGLAGAFKQKLVPLVRTVYVQRPKQRNRLPGNLFQQWRVPLELQMARQMASSGSSGGKMDNSVLVLIVGLSTIGAGAYAYKTIKEDQKRYNERVMGLGLSPEEKQRRAIASATEGGSVPQIRAPSHVPFLLIGGGTAAFAAARSIRARDPGARVLIVSEDPELPYMRPPLSKELWFSDDPNVTKTLQFRQWNGKERSIYFQPPSFYVSAQDLPNIENGGVAVLTGKKVVHLDVRGNMVKLNDGSQITFEKCLIATGGTPRSLSAIDRAGAEVKSRTTLFRKIGDFRALEKISREVKSITVIGGGFLGSELACALGRKSQASGIEVIQLFPEKGNMGKILPQYLSNWTMEKVKREGVKVMPNAIVQSVGVSGGRLLIKLKDGRKVETDHIVTAVGLEPNVELAKTGGLEIDSDFGGFRVNAELQARSNIWVAGDAACFYDIKLGRRRVEHHDHAVVSGRLAGENMTGAAKPYWHQSMFWSDLGPDVGYEAIGLVDSSLPTVGVFAKATAQDNPKSATEQSGTGIRSESETESEASEITIPPSAPAVPQVPVEGEDYGKGVIFYLRDKVVVGIVLWNVFNRMPIAAAIIADGEQHEDLNEVAKLFNIHED
B2: WT-AIF: full length wild type mouse AIF (apoptosis-inducing factor), recombinant (protein)
chain: B1 chain with A588R, A589K, A592K

What was measured:
HeLa cells = assay: AIF nuclear translocation in HeLa cells after MNNG; type: cell-based; settings: MNNG 50 μM for 15 minutes
Description: (§1) Unless otherwise set forth herein, immunocytochemistry, immunohistochemistry and confocal microscopy as referenced in the examples entailed the following materials and procedures. For immunocytochemistry, cells were fixed 2 hours after treatment with 4% paraformaldehyde, permeabilized with 0.05% Triton X-100, and blocked with 3% bovine serum albumin in PBS. AIF was visualized by 2 μg/ml mouse anti-Flag/Cyt AffiniPure Donkey Anti-Mouse IgG or rabbit anti-AIF/Cy3 AffiniPure Donkey Anti-Rabbit IgG. Immunohistochemistry was performed using the antibody against Flag. Immunofluorescence analysis thereafter was carried out by using a LSM510 confocal laser scanning microscope (obtained from Carl Zeiss Microlmaging) as described by H. Wang et al. (J. Neurosci, 2004).

Hq cortical neurons = assay: NMDA excitotoxicity in Hq cortical neurons; type: cell-based, mouse; settings: DPQ (30 μM) or zVAD (100 μM) in addition to NMDA
Description: HQ cortical neuron cells were transduced with lentivirus carrying WT-AIF-Flag or Pbm-AIF-Flag. Non-transduced neurons and GFP-lentivirus infected cells were used as negative controls. […] In those photos, blue indicates Hoechst 33342 staining and red indicates propidium iodide staining. […] The cytotoxicity in these Hq cortical neurons was measured at 24 hours, 36 hours, and 48 hours after NMDA (500 μM for 5 min) treatment, and the data for this is reported in the graph of FIG. 18B.

PAR [1] = assay: in vitro PAR-binding assay, twenty percent TBE-PAGE analysis
Description: To begin, 300 nM of purified WT-AIF or Pbm-AIF (i.e., AIF mutated in its PAR binding region) were incubated with ^32P-labeled PAR for 10 minutes at room temperature. Thereafter, samples were incubated with AIF antibody-linked protein G slurry for 1 hour. Samples were washed two times with PBS and boiled with 1× Laemmli sample buffer (obtained from BIO-RAD). Each soluble fraction was resolved in 20% TBE-PAGE. The gel was heat dried and developed using the Typhoon 9400 Imager.
(§2) To further ascertain whether full length recombinant AIF-Tm produced above (henceforth named “Pbm-AIF”) binds PAR, Applicants performed three iterations of an EMSA assay for PAR binding with recombinant WT-AIF and Pbm-AIF, using histone H3 as a control. […] FIG. 9 comprises a black and white photograph of EMSA gels showing representative results for WT-AIF and Pbm-AIF using ^32P-labeled PAR.

isolated HeLa nuclei = assay: nuclear shrinkage assay; type: biochemical; settings: non-tagged proteins incubated with isolated HeLa nuclei
Description: Nuclei were obtained by purification from HeLa cells as described previously by A. Mandir et al. (J Neurosci, 2000). For the assay, purified nuclei were incubated with recombinant WT-AIF or Pbm-AIF (20 ng/ml) in the presence of ATP (2 mM), phosphocreatine (20 mM) and creatine kinase (50 μg/ml) for 90 minutes at 37° C. Nuclei were stained by DAPI and examined by fluorescence microscopy.
FIG. 11D comprises an array of color photographs showing the result of fluorescence microscopy for various cultures, as labeled in the figure, following DAPI staining. […] FIG. 11E is a chart reporting the result of a quantification of nuclei treated by WT-AIF, Pbm-AIF, and control (“CTL”), using Caspase 3 as a positive control.

PAR [2] = assay: biotin-labeled PAR pull-down assay; type: binding; settings: biotin-labeled PAR-conjugated NeutrAvidin beads
Text: To confirm that Pbm-AIF fails to bind PAR, Applicants also performed four trials of biotin-labeled PAR pull-down assays on WT-AIF, Pbm-AIF, and histone H3. For this experiment, the pull-down assay used biotin-labeled PAR-conjugated NeutrAvidin beads. FIG. 10A comprises a composite black and white photograph depicting typical gels obtained in this pull-down assay.

[3] = tested on: Hq mouse cortical neuronal cultures; assay: AIF translocation to the nucleus in Hq cortical neurons; type: cell-based; settings: 100 nM staurosporine, 24 hours
Description: as §1, with “For immunocytochemistry, cells were fixed 2 hours after treatment with 4% paraformaldehyde, permeabilized with 0.05% Triton X-100, and blocked with 3% bovine serum albumin in PBS.” left out
Again, AIF translocation to the nucleus was monitored two hours after NMDA (500 μM, 5 minutes) treatment sufficient to initiate parthanatos in wild-type cells.

PAR [4] = assay: PAR overlay assay of full length AIF and mutants; type: binding
Description: (§3) The following experiment was performed to confirm whether AIF in fact binds to PAR. Applicants performed 3 trials of an overlay assay on recombinant AIF with affinity-purified biotin-labeled PAR. Histone H3, which binds to PAR with high affinity, was included as a positive control and bovine serum albumin (“BSA”) was included as a negative control, as described by P. Chang et al. (Nat Cell Bio, 2005). FIG. 1B depicts three photos side by side for gels representative of all trials for these overlay assays. […] Thus, Applicants took the results of these two tests as confirming that AIF binds to PAR in vitro.
To further study these potential AIF PBMs, Applicants performed the following experiment to examine the effect of mutating AIFm amino acids 222-244, 441-463, and/or 567-592 to poly-alanine on the ability of AIF to bind PAR. FIG. 6 comprises black and white photographs of representative gels from an overlay assay of His-tagged WT-AIF, AIFm222-244, AIFm441-463, AIFm567-592, AIFΔ567-592 (i.e., a mutant lacking AAs 567-592), and AIF(K254A, R264A) (i.e., mutating K to A at 254 and R to A at 264) mutants with ^32P-labeled automodified PARP-1 (equivalent to 100 nM of PAR), purified ^32P-labeled PAR (100 nM), or purified ^32P-labeled PAR with either a 100-fold excess of DNA or cold PAR. […] The same can be assumed to corresponding sequences for other species, such as those identified in FIG. 4.
Additionally, to exclude the possibility that PAR polymer is binding to AIF through its DNA-binding domain, PAR polymer binding was assessed against the full length AIF DNA-binding mutant AIFK254A;R264A as described by H Cande et al. (Nat Struct Biol, 2002).
Finally, Human AIF (“AIFH”) is known to bind to DNA through a groove between the FAD-binding domain (“D1”) and C-terminal domain (“D3”). A mutant form of AIFH in which lysine 255 is substituted with alanine and arginine 265 is substituted with alanine (AIFK255A;R265A) completely lacks DNA binding. To investigate the possible contribution of the AIF DNA-binding domain to PAR binding, Applicants assessed PAR binding to AIFm mutated in the same way (AIFK254A;R264A). […] Thus, Applicants concluded that the AIF PAR-binding site is separable from its DNA-binding site, meaning that such binding could be inhibited by genetically modifying AIF without impacting the natural DNA binding capabilities of AIF or potentially by otherwise inhibiting the binding action of the PBMs.

PAR [5] = assay: EMSA with 32P-labeled PAR; type: binding
Description: as §3, §2

isolated mitochondria = assay: AIF binding to isolated mitochondria; settings: for binding to mitochondria versus concentration: 0.1 ng/μl to 120.5 ng/μl, 30 minutes, room temperature; for binding percentage to mitochondria over time: 2.5 ng/μl, mitochondria 200 μg/ml, after 5 minutes; for depletion from the supernatant by mitochondria: untreated mitochondria, absence of PAR
Description: One commonly accepted estimate is that approximately 20%-30% of AIF resides on the cytosolic side of the outer membrane of mitochondria, where it is poised to be rapidly released by PAR following PARP-1 activation. Applicants thus wanted to perform tests of AIF binding to mitochondria determine how readily purified WT-AIF and Pbm-AIF bind to mitochondria in a time- and concentration-dependent manner. Specifically, recombinant WT-AIF (2.5 ng/μl) and Pbm-AIF (2.5 ng/μl) were incubated with isolated mitochondria (200 μg/ml) for 1 minute, 5 minutes, 10 minutes, 15 minutes, 20 minutes or 30 minutes. […] The results of this portion of the experiment is provided by the graph of FIG. 15B.
To investigate the mechanism underlying mitochondrial AIF release following PARP-1 activation, Applicants incubated isolated mitochondria with purified non-tagged forms of AIF in the presence or absence of PAR and followed this by centrifugation to remove the mitochondria. Detection of AIF remaining in the supernatant was thereafter performed through immunoblot analysis.
The supernatant collected in the experiments of Example 16 were also analyzed for the presence of Tom20 and cyclochrome c.

Molecule | effect on nuclear translocation of AIF after MNNG (HeLa cells) | effect on NMDA-induced cortical neuron death (Hq cortical neurons) | binding to 32P-PAR (PAR [1]) | chromatin condensation and nuclear shrinkage (isolated HeLa nuclei) | pull-down with biotin-labeled PAR (PAR [2]) | translocation to the nucleus after staurosporine [3] | PAR binding (PAR [4]; His-tagged proteins, purified PAR, normalized to WT-AIF, result in words) | reduced PAR binding (PAR [4]; radioactive signal normalized to WT-AIF) [%] | PAR mobility shift (PAR [5]) | binding to mitochondria versus concentration (isolated mitochondria) | binding percentage to mitochondria over time (isolated mitochondria) | effect of PAR on association with mitochondria (isolated mitochondria; 5 nM PAR) | effect of PAR on association with mitochondria (isolated mitochondria; 50 nM PAR) | effect of PAR on association with mitochondria (isolated mitochondria; 100 nM PAR) | depletion from the supernatant by mitochondria (isolated mitochondria) | effect of hundred fold excess of salmon sperm DNA on PAR binding (PAR [4]; overlay assay, 32P-labeled PAR) | binding to biotin-labeled PAR (PAR [4]; overlay assay, affinity-purified biotin-labeled PAR) | effect of salmon sperm DNA on PAR binding (PAR [4]; salmon sperm DNA at 760 μM) | PAR mobility shift (PAR [5]; listed as AIFm)
O=C1NCCc2c(OCCCCN3CCCCC3)cccc21 [DPQ, 3,4-Dihydro-5[4-(1-piperindinyl)butoxy]-1(2H)-isoquinoline, reference compound] | prevented the nuclear translocation of both endogenous AIF and WT-AIF-Flag | inhibited NMDA-induced cortical neuron death |  |  |  |  |  |  |  |  |  |  |  |  |  |  |  |  | 
B1 |  |  | failed to bind to ^32P-PAR | comparable levels of chromatin condensation and nuclear shrinkage | only a barely detectable amount | translocated to the nucleus | nearly abolished PAR-binding | 90 | no effect on PAR mobility | bound to the mitochondria in a concentration dependent manner | equivalent | failed to affect association | barely detectable effects | partially reduced mitochondrial binding | effectively depleted |  |  |  | 
B2 |  |  | bound to ^32P-PAR of different lengths | comparable levels of chromatin condensation and nuclear shrinkage | pulled down with biotin-labeled PAR |  |  |  | caused a PAR mobility shift in a concentration-dependent manner | bound to the mitochondria in a concentration dependent manner | equivalent | failed to affect association | increased the concentration of WT-AIF in the supernatant | almost completely abolished | effectively depleted | fails to disrupt | bound to biotin-labeled PAR in a concentration-dependent manner | failed to disrupt PAR binding | cause a shift of PAR polymer

— US20120122765A1, “COMPOUNDS AND RELATED METHODS FOR MANIPULATING PARP-1-DEPENDENT CELL DEATH” (priority 2010, published 2012)
